± gives the standard deviation of the averaged measurements.
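Further: PSI is a weighted mean of sequencing reads over stability bins, variants kept only with over 10 reads, mCherry proximal and sfGFP distal, peptide attached via GGGS linker.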

In the series the test system is Saccharomyces cerevisiae. The series is described as follows: protein stability index of tFT-peptide fusion (C-terminal peptide) (PSI (0-1 scale)); higher = more stable (slower turnover). To be noted: genetic background: wild type; temperature: 30 C.
LSWLSLSSNSRL registered a protein stability index of 0.798 ± 0.019. In turn, LSWSYTGVCRSE registered a protein stability index of 0.69 ± 0.06.

LSYCVGFFSLVG returned a protein stability index of 0.6459 ± 0.0012. The sequence LSYSFGCEFLWL gave a protein stability index of 0.674 ± 0.033. Then LTAKDSRGLFRP, with 0.706 ± 0.012; and LTARPPTLSSPL, with 0.6729 ± 0.0043; and LTASPPRLPPFP, with 0.701 ± 0.0081. LTGRAVCTDKLK came in with a protein stability index of 0.734 ± 0.083. LTKPPHERREKS showed a protein stability index of 0.635 ± 0.019. In the case of LTLADWYRIPVI, the protein stability index worked out at 0.558 ± 0.051. LTLCYGRLPPRL had a protein stability index of 0.771 ± 0.022. Take LTPLPSRPPPLP: the protein stability index worked out at 0.683 ± 0.087. Then LTSSLSLSFPPL, with 0.749 ± 0.039.

Take LTTFLLTRIVGA: the protein stability index was determined as 0.567 ± 0.035. LTVLGSGNLTRS gave a protein stability index of 0.729 ± 0.029.

On to LTYFCTLPATLK, for which the protein stability index stood at 0.663 ± 0.022. LVAATGRCIKKP showed a protein stability index of 0.649 ± 0.061. For the sequence LVAFKGNSMGRE, the protein stability index was 0.681 ± 0.019.

Turning to LVALCGYTLRLR, the protein stability index worked out at 0.487 ± 0.076. Then LVCMGCCVRTYT, with 0.608 ± 0.037. The same measure for LVCPLFCSRWWV: 0.674 ± 0.1; for LVFGVSRRLGRG: 0.65 ± 0.01; for LVFHSLCFFPLS: 0.694 ± 0.014. Take LVFREISSRHEI: the protein stability index came out at 0.711 ± 0.018. The same measure for LVGGGEGWVVLG: 0.651 ± 0.09. With LVGIYYEHPISP, the protein stability index was 0.754 ± 0.13. LVGLGGCLVGLR yielded a protein stability index of 0.6277 ± 0.0027. Consider LVGLVCDFVFVL, for which the protein stability index came out at 0.589 ± 0.007. Sequence LVGSGLFGWGWN had a protein stability index of 0.769 ± 0.073. As to LVHDQKFSCNWL, the protein stability index turned out to be 0.74 ± 0.031. Consider LVILWDVLSVVP, for which the protein stability index was determined as 0.612 ± 0.049. In turn, LVIVFDLGNMLH registered a protein stability index of 0.538 ± 0.038. LVLLTRSASLLG gave a protein stability index of 0.691 ± 0.094. In turn, LVLSGFSLFPVP displayed a protein stability index of 0.705 ± 0.034. LVLTLAPWILFD displayed a protein stability index of 0.6784 ± 0.0015. On to LVLVGISCVKGR, for which the protein stability index was determined as 0.597 ± 0.02. The same measure for LVMTYGFTSVSR: 0.687 ± 0.07.

With LVPWSGCSALLV, the protein stability index came out at 0.585 ± 0.014. Then LVRFRADEPRGG, with 0.688 ± 0.058; and LVRFTCRFFVGV, with 0.589 ± 0.0089. In the case of LVRGRFVVFSGM, the protein stability index is 0.626 ± 0.034. LVRHCIPIIPPP came in with a protein stability index of 0.638 ± 0.026. The sequence LVRLVGVGLEAV displayed a protein stability index of 0.694 ± 0.055. In turn, LVSHVPLLPMTP showed a protein stability index of 0.776 ± 0.03.

As to LVSLPISFPASL, the protein stability index was 0.692 ± 0.035.

The sequence LVSSLVSSEVYM returned a protein stability index of 0.656 ± 0.019.

On to LVTCPPPVGGPS, for which the protein stability index is 0.691 ± 0.0083.

The sequence LVTGRVASPPLG displayed a protein stability index of 0.696 ± 0.043.

Consider LVTSACPVPPAR, for which the protein stability index was determined as 0.5766 ± 0.002.

LVVSHMSQPISM: the protein stability index came to 0.64 ± 0.03. As for LWALPTPPPSGH, the protein stability index was determined as 0.67 ± 0.1. LWCPLPHGVLLL had a protein stability index of 0.608 ± 0.053. LWFPLCRLVRRD: the protein stability index amounted to 0.682 ± 0.025. In the case of LWFVGVAGFSLV, the protein stability index is 0.5715 ± 0.004. For the sequence LWSIEVEKAKQK, the protein stability index is 0.708 ± 0.068.

For LWSSRPGFDDVW, the protein stability index stood at 0.6426 ± 0.0011. The same measure for LWVSSGASCFIL: 0.7239 ± 0.0039; for LYGILSCNSGCG: 0.672 ± 0.035; for LYKYPKRCVDIG: 0.676 ± 0.057.

Take LYRFVSVLSDVH: the protein stability index was 0.577 ± 0.012. As to LYRRLLCYPKTR, the protein stability index is 0.675 ± 0.0043. In the case of LYSDLLTDDKNC, the protein stability index was 0.666 ± 0.023. The same measure for LYSGIAVSATSL: 0.734 ± 0.048. Turning to LYTENSDLDRVF, the protein stability index was determined as 0.657 ± 0.039.
